# Test results reported in the domain aggregation screens of Martell et al. (2025).
# Experiment: soluble fraction after stress (log2 fold change); higher = more stays soluble; pooled small domains, quantitative proteomics
# Details: stress: 50 degC
# In short: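 After stress at 50°C, the amount of each protein still soluble was measured. This was done on pooled custom libraries of small protein domains, using high-throughput quantitative proteomics. The figure given is a base-two log fold change and stands for aggregation propensity, with higher values meaning more protein stays in solution.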
row,Sequence,soluble fraction (log2)
1,HMRDLITYVVQINGKLRGKLEVAPDTDPEELKALALEVENVKRSLEGWVVKKVIVVPGKMVSIAAG,-0.193
2,HMRDLLPHFQRELQFLQTHRNEFAAAYPELGGRLATASDLLDDPHVERMVQSFALLAARVHKRLDDDF,0.206
3,HMRDLTARQQQILALIRQHIADTGFPPTRAEIAAQLGFRSPNAAEEHLKALARKGVIELASGASRGIRLK,-0.16
4,HMRDPFDALSARERAVASLVQRGLRNKEVASELGLTEGTVKVHLHKVFDKLGIRGRTELILLAQER,-0.79
5,HMRDQAIDIYKTVHSVAEPYKEVFLLRVLGELSFKEISHIFGKSESWAKVTFFRAKIKVVEKREES,-3.74
6,HMRDQQHNIYLLEKAKRLYEEFLGDNRHIIAAEMARFEAVLETQDAIIIQRAQQQFSEFLNRFDG,-1.63
7,HMRDRYEYLKELRLYLSPLGRTEEDRVIEYYAELIGDKIESGIPENGVLSQLGTPRELADKILAETQEY,-0.35
8,HMRDSLVGLEGVVVREVDDETLAGKVQIGSMEWSARSESGRIPAGRRVVVLRAEGVHIVVKEV,-0.205
9,HMRDSWNEATKEKRYTEAYDALNSALKKTPATPHALSDALWIARELGRTNEEVQRLEWRLYALLTWIS,0.0708
10,HMRDTDAEVTYKLNEPFKTMGSVSVEGKVLEFAGSKWFARAAEFASNTEVYPLAKNRVRLTFTFHGLTAP,0.105
11,HMREEFIGVLDGKVAIFHGRPERKGPLKEVTAIEVDKLPRQEQADLEKGLVIRTDKEKLQLMEGLAALLD,0.289
12,HMREELIALYRAIARLSEDEQELLNLFYFARRPLSEIAQLTGMTPGAAKTRLYRARRHLRREMEEDGYG,-0.986
13,HMREGLRHLRVRMPGGAGETLAMLYREGEVLSQSSDGAFIEVEIRVAQSVAGRLLQMPGVQLTEEVG,-0.21
14,HMREGNELLGKEGVTVSELRPAGIALIDGRRTDVVTDGEFVAVDQAVEVVEVSGNRVVVRRS,0.0948
15,HMREIDIWVAEDADSQRIDKYLSMVVEDLSRSRIASLIEGGSILVNGEVIRAKYKVKPADHITAAFEDEM,-0.72
16,HMREIKSNEILLEVENLKNSEFFNDINFNIKKGEIVGFSGLIGAGRTELALTLFGYYKAESGKVIQ,0.061
17,HMREIRIIAEEGHGRLDAFLAGREELGLSRSRIKGLIEEGQVTLNGAVPKAKQPVSPGDEIVVSVPD,0.141
18,HMREKMKGKILDYNFQESRGIISADDGNRYSFENSQWKGTQSPKVNQIVDFEIDGQNAKDIYLDK,0.162
19,HMRESLSEAERHPRYLEGEDVVRMFLLMGDLSRVEAEVIALQWNAQEADRVGLPQDAKVFRTRAR,-0.511
20,HMREVDKRYYKINIAGTDRIFTNVYRVGDRYSAYEADKNGKPGKFLYSLSQAEIDRAVISGSFDFK,0.105
21,HMREVSPEDLALMRRIDAWHLEHPFAGARLLRDLLRPEGFQAGRRHIGTLMARMGIEALYRK,-0.458
22,HMREYVGLSPFNKEKTPSFYVNDEKGQFFDFSSGKNGDLITFLQETERLTFMEAVERLAAEAGLPMPA,-0.491
23,HMRFANGHLIWDTIIELRNAERRINRRALADLTGLKPGVVDDHVERWIEKDQLRRAGNGELEVV,-0.943
24,HMRFMRVSQSKSKNSTSLYIIESVYTKDNKHTTRIVKKLGTVEELSKEHEDPLAWAKEVAKQMTEEAEQN,-0.347
25,HMRFNIGNVIEHYKLNTEDLAKVLFPTVKYPKQAFDRVLKGEANLDVIQLERLANHIGVLVTDLF,-0.196
26,HMRFQGKISDWNDEKGYGFVEPNGGGTRAFVHIKSFTDLPRRPINGDIIIYETTTDEKNRVQANNISFTR,0.0181

row,Sequence,soluble fraction (log2)
1,HMRFSYLNIETRKDISSLINKSEITHSSYNNNEYLYKIKSKKTDDFKDLISLIDEKDLISYSIDS,-0.838
2,HMRFTVSDKMDMLLKSLSAGQSMPFKSLFASASTKSEVIVTFLALLELMKLNQFVVWQDQILGEIEIERR,-0.554
3,HMRGDQLREHLLWTAKDVFLELGFERASMDAVAARAETSKRSLYAHFESKEKLFLAVIDLVRG,-3.67
4,HMRGESFSTLVSILQEMSARKAAQVLNGLSEGLAVEVLRALPSDVAGDILGRMDAAKAAALMEQLST,-0.17
5,HMRGGLATLTPRERQVLALMAEGRSNAGIAAELVVSGGAVEKHVASIFTKLGLPPDESDNRRVLAVLRHLG,-0.661
6,HMRGHASVEIKRIVYKYKLTDQELAKITGMKASDFPIYHDHLQLILPKRYWARVLDALQNYEKEHES,-4.18
7,HMRGINDLSLVDPQGRIRKDGEQYVVAFGRHKGKEISQIISQDPSYLNWLLSPKGIEDDATRELIRTQYS,-0.0415
8,HMRGPTIELLIQKSALYEELDDSENALKEILKAFDRDSLNSDVLNRLVNLLLNDKQIDRAENYNQLLIEK,-0.32
9,HMRGPVRLDLPVSGLSRSSGPALAKILQAVPGVHKAHVNVRSGKATLEYDPARAKVTDFVEVIRSAGFGT,-0.0414
10,HMRGQGRILAMLKIQPEIATKDLAYLLGIRQQSLNELLKKLEKNSYVERRPSEKDRRVMVVHLTEKGKE,-0.715
11,HMRGQLADLWLPREQARRAAEIVAARPVPLGSVKTWIARGKLAPRKTGTGPALYRVGALVSLLAKS,-1.67
12,HMRGVNEISYTTLISEVSGGNVRDVVISGDEITGTFNDGSRFHSFSPDDPQFIERLNDQGVIINVKPL,-0.0829
13,HMRHDSEGYYRLIGVPPDADDAELKEAAKKRLMEAHPDHGGSEDEFVEVYRAYRTLTDPSARAEYDARP,0.307
14,HMRHEDLSPAQKAAALVVAVGSENAAQVLRHLSEEEVEILAGEVARLGEVDPDVVDSVMREVYEQMMGH,-0.423
15,HMRHKSNRRLTAAHQIEQQIQKLLMENTMEAKELKESLNFAAKDIDTVLSWLVDKDKVRINAINQYYWT,-0.767
16,HMRHRITEKDKQFRIGQQVWHSEYGKGMVLSVDGIGSSARLTVSFVSGKLAKIIGTFVSTEP,-1.68
17,HMRIETLESLANRLAYKAYRTGRKVELEPMNPFERRVIHTALQNSKYATTESEGEDMNRHIVIVPKEGG,-0.0606
18,HMRILGIDPGSVVTGYGVIDKSGNYLRHVLHGEIKPHKGYLLSEVLMDIFSKLSAVIVETNPQSV,-0.0179
19,HMRINIVKSKNAEQLYIIHSYRINGKNTSKIYKKLGTMADLLPLHNHDRDQVLAWAKEQARLATEQYDQEN,-0.855
20,HMRIQLNFSDQLLDDVMSEALKHIDRKSQEHHIEKQMDDEFMLVYIDARLIIQVIVNIINNAIKY,-0.00268
21,HMRITEGEIVEIQEGDNRALVGVGEKLEGIISLDEIRGADGKLLFNVGDKITVMVMGHYNERPK,0.15
22,HMRITRREQQVLHLLAMGMTTREIAGHINLTERTVRNRISNLRDKLGAQTASQLLAKAVAQGLIEP,-2.02
23,HMRIVSGRESMLGRTVVVADWAGERGHVVVDGERWNAVASTPLAAGRRARIVGIDGLTLSVSPDDKP,0.216
24,HMRKAERHLLIKQVIDEFTIRTQEELLAKLSDYGVNATQATISRDIRDLKIVKAPDENGISRFVFF,-0.964
25,HMRKGDDRLRAQVDEYISKQGNNTFNYKQVAHAINATSPISQRAVALYLAELAFDGDLLETAPGRYKSPSR,0.0382
26,HMRKIKDVLRLKLHAGLSHERVAASLNISKGVVAKYTSLAAAAGLDWPTVERLSEAALERRLV,-0.135

row,Sequence,soluble fraction (log2)
1,HMRKIKEVLRLKFETGFSHERIAAAVGVSKGAVTKYVQRAVAAGLGWPLAPERDDAALEALLFPH,≥ 0.62
2,HMRKLDQRLAGLLLGKGRLVKATHQQLADELGSVREMVSRLLKGFAEHDLVRMSREQIEIVDAAGLRKLAD,-1.33
3,HMRKPDLTSVRTLIRSVSKLARHLKISPNGIYRWISVNRIPGAHVVKVANYYDVEIRDLVHLTGSD,-1.39
4,HMRLADHVVEKLLALVQDRGLQPGQKLPAERQLAEELGVSRTSVREAIQKLTSQGVLSARRGDGTYLQS,0.0556
5,HMRLARPLTPTEERVLRLLASDMSNAKIGEVLGIRLPTVKSHVSHIMQKLGVTSRAKARTAAQQLGI,-0.887
6,HMRLDPENFYIRAVTYYRNGDWQRALSQLDEAIKLGTAIEYPALQARIYLEQGMRDEFIAASEK,-1.71
7,HMRLDVALRGVLLDGDPTQSRAFVLVSGTTSTYRLGETVQSAELVAINADTITLRTETGLHVIGFDGLI,-2.48
8,HMRLEYLVDVEEISIKEYLMLLGLSRRLARKIKLYGKMYINHQEAFNYHLVKKGDLLTIEFDE,-2.55
9,HMRLIDVFELSPKNRTVLQLYYYEGYSVTEISKILKISVNGVTSRLSRARSKLKLEMEAAENE,-0.316
10,HMRLMLITPTEFDEAAEIADNLKDRRAVLMNVEKTDNETARRLIDFLSGVVYALGGKIMRISAQAYVLT,-0.236
11,HMRLPNGYGGVTKLSGRRRKPYMVRKTIGWHIDEKTDKKVQDYVVIGYAATKSEALQMLADYNNNPFDV,-3.2
12,HMRLSVVDLQDSLRGLEYPAGKGDLINHAREHNASADVIAVLEQFSERTYRSAADVGEEFGRV,0.111
13,HMRLTIAQLSEKTGVPERTIRYYIDRGLVPSAHGERRGAWYDTVHLEPLLRIQQWREAGLSLEAIADLLR,-1.19
14,HMRMLLEERLDEIVKIVNERGSISNQELVKMFGASESTIRRDITTLANDNRVIRVHGGAMSVVS,-0.0564
15,HMRMTLKNKVEDIVHILRKDKQTSLSAILGDNTDRIQTIVVFLAILELVKQHLIKTDQNANFGDINLFPED,-0.0677
16,HMRNLFWTEAQNAQNELNAMRINALTQSIRRIEPNFRGIPSLRDPNRPIPNEEVRDYENYLNRILP,0.119
17,HMRNMRKLWIARINAAARMNDISYSKLMHGLKLANVEINRKMLSEMAIDDPKSFTALVETAKKALNG,-0.894
18,HMRNPLYAQVADYVMQQIAAGTYRPHQAIPTEWQLAKKLEVSQGTVRKGLDELVFKQILYRQQGVGTFVAD,-1.19
19,HMRPAAELGLPHAPKHFIQYLTEDDRPQVLKDVDYEGGMGVSIGRLREDSIFDWKFVGLAHNTL,0.062
20,HMRPADTAAMLKYLSSGAVKGIGGALAGRIIEAFGDESIKVIEEDPARLATVKGITLKKAKEISEEMQRVN,0.0712
21,HMRPEFVVALSGADLGKLHRLYELGEVLSREDDAEGVTHAVLRVPDKHEHAFHAEFPQARPM,0.378
22,HMRPIDEVFGFFSRPENLTVITPSNLHFNILTPRPLEMKQGAVIDYTIKIFKVPIHWRTLITTYDPPFKFV,-0.288
23,HMRPILTLEEAKAKALAHAGLKADQVTFTEAKLDWDDGKQVYDIEFYTADFKEYDYEIDAKTGEVLEVDY,-0.452
24,HMRPKAIFVDVDDTLVRSVGQTRIPMPAVIAHIRRLHDAGHQLYLWSSGGADYARASAEELGIGQYFQAFL,-0.26
